Results reported in article PMC6101547 (Nucleic Acids Research, 2018).
Numbering of substitutions follows the chain as printed. Names may count otherwise. Like-named read-outs stand apart in the source and are kept apart here.

Tests used:
[1] = biological target: T1, Rim1 (mitochondrial SSB) (Saccharomyces cerevisiae, UniProt P32445 17-135); assay: Cy3 fluorescence titration
T1 sequence: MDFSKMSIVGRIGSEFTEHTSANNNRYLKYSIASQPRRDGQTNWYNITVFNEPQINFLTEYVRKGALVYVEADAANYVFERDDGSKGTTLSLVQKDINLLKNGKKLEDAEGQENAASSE

[2] = biological target: the molecule itself; assay: AUC
[3] = biological target: the molecule itself; assay: AUC; remark: listed apart in the source
[4] = biological target: T1, Rim1 (mitochondrial SSB); assay: FRET titration
[5] = biological target: T1, Rim1 (mitochondrial SSB); assay: Cy3 fluorescence titration; remark: listed apart in the source
[6] = biological target: T2, Rim1 Y85H (Saccharomyces cerevisiae, UniProt P32445 17-135, Y85H); assay: sedimentation equilibrium
T2 sequence: T1 sequence with Y69H

[7] = biological target: T1, Rim1 (mitochondrial SSB); assay: sedimentation equilibrium
[8] = biological target: T1, Rim1 (mitochondrial SSB); assay: Cy3 fluorescence titration; remark: listed apart in the source
[9] = biological target: T1, Rim1 (mitochondrial SSB); assay: Cy3 fluorescence titration; remark: listed apart in the source
[10] = biological target: the molecule itself; assay: AUC; remark: listed apart in the source
[11] = biological target: T1, Rim1 (mitochondrial SSB); assay: FRET titration; remark: listed apart in the source
[12] = biological target: T1, Rim1 (mitochondrial SSB); assay: FRET titration; remark: listed apart in the source

B1: dT20-Cy3-T (ssDNA)
DNA: TTTTTTTTTTTTTTTTTTTTT
modifications: internal Cy3 before last T
B1: binds [1].

B2: Rim1 harboring the mutation Y85H (amino acids 17-135) (natural protein, S. cerevisiae, UniProt P32445 17-135, looked up)
chain: T1 sequence with Y69H
In the case of B2, the “stoichiometry N” value [2] is reported as 2 and the “stoichiometry N” value [3] is reported as 4.

B3: Cy5-dT68-Cy3-T (ssDNA)
DNA: TTTTTTTTTTTTTTTTTTTTTTTTTTTTTTTTTTTTTTTTTTTTTTTTTTTTTTTTTTTTTTTTTTTTT
modifications: internal Cy3 before last T
B3: binds [4].

B4: dT15-Cy3-T (ssDNA)
DNA: TTTTTTTTTTTTTTTT
modifications: internal Cy3 before last T
B4: binds [5].

B5: Cy3-labeled dT15 (AUC) (ssDNA)
DNA: TTTTTTTTTTTTTTT
B5: binds [6]; binds [7].

B6: dT28-Cy3-T (ssDNA)
DNA: TTTTTTTTTTTTTTTTTTTTTTTTTTTTT
modifications: internal Cy3 before last T
B6: binds [8].

B7: dT38-Cy3-T (ssDNA)
DNA: TTTTTTTTTTTTTTTTTTTTTTTTTTTTTTTTTTTTTTT
modifications: internal Cy3 before last T
B7: binds [9].

B8: Cy3-labeled dT20 (AUC) (ssDNA)
DNA: TTTTTTTTTTTTTTTTTTTT
B8: binds [6].

B9: Human mitochondrial SSB, mitochondrial form (amino acids 17-148) (natural protein, UniProt Q04837 17-148, looked up)
chain: ESETTTSLVLERSLNRVHLLGRVGQDPVLRQVEGKNPVTIFSLATNEMWRSGDSEVYQLGDVSQKTTWHRISVFRPGLRDVAYQYVKKGSRIYLEGKIDYGEYMDKNNVRRQATTIIADNIIFLSDQTKEKE
B9: binds [10].

B10: Cy5.5-dT40-Cy3-T (ssDNA)
DNA: TTTTTTTTTTTTTTTTTTTTTTTTTTTTTTTTTTTTTTTTT
modifications: internal Cy3 before last T
B10: binds [11].

B11: Cy5.5-dT45-Cy3-T (ssDNA)
DNA: TTTTTTTTTTTTTTTTTTTTTTTTTTTTTTTTTTTTTTTTTTTTTT
modifications: internal Cy3 before last T
B11: binds [12].
